Among the data in patent publication US20200157190A1 are ELISA plate reading values, retold here.

The target in experiment [1] is Antigen 1. Briefly: ELISA, supernatant UNDILUTED, Plate 1 (Antigen 1), column 6, BLANK 0.07. For orientation: An ELISA detects its analyte on a solid surface through an enzyme-linked reagent.
Experiment [2] addresses Antigen 1. Briefly: ELISA, supernatant 1 TO 64, Plate 1 (Antigen 1), column 6, BLANK 0.07.
The target in experiment [3] is Antigen 2. Briefly: ELISA, supernatant UNDILUTED, Plate 2 (Antigen 2), column 6, BLANK 0.06.
The target in experiment [4] is Antigen 2. Briefly: ELISA, supernatant 1 TO 1024, Plate 2 (Antigen 2), column 6, BLANK 0.06.
Experiment [5] addresses Antigen 2. Briefly: ELISA, supernatant 1 TO 4, Plate 2 (Antigen 2), column 6, BLANK 0.06.
The target of experiment [6] is Antigen 2. Briefly: ELISA, supernatant 1 TO 16, Plate 2 (Antigen 2), column 6, BLANK 0.06.
Experiment [7] addresses Antigen 1. Nature of the experiment: ELISA, supernatant 1 TO 4096, Plate 1 (Antigen 1), column 6, BLANK 0.07.
Experiment [8] addresses Antigen 1. Briefly: ELISA, supernatant 1 TO 4, Plate 1 (Antigen 1), column 6, BLANK 0.07.
For experiment [9], the target named is Antigen 2. Nature of the experiment: ELISA, supernatant 1 TO 64, Plate 2 (Antigen 2), column 6, BLANK 0.06.
Experiment [10] concerns the target Antigen 2. Nature of the experiment: ELISA, supernatant 1 TO 256, Plate 2 (Antigen 2), column 6, BLANK 0.06.
For experiment [11], the target named is Antigen 2. Briefly: ELISA, supernatant 1 TO 4096, Plate 2 (Antigen 2), column 6, BLANK 0.06.
Experiment [12] has as its target Antigen 1. Briefly: ELISA, supernatant 1 TO 16, Plate 1 (Antigen 1), column 6, BLANK 0.07.
Experiment [13] addresses Antigen 1. Briefly: ELISA, supernatant 1 TO 1024, Plate 1 (Antigen 1), column 6, BLANK 0.07.
Experiment [14] concerns the target Antigen 1. Nature of the experiment: ELISA, supernatant 1 TO 256, Plate 1 (Antigen 1), column 6, BLANK 0.07.
Experiment [15] deals with Antigen 1. Nature of the experiment: ELISA, supernatant 1 TO 1024, Plate 1 (Antigen 1), column 8, BLANK 0.07.
Experiment [16] deals with Antigen 1. Briefly: ELISA, supernatant 1 TO 16, Plate 1 (Antigen 1), column 8, BLANK 0.07.
In experiment [17] the target is Antigen 1. Nature of the experiment: ELISA, supernatant 1 TO 256, Plate 1 (Antigen 1), column 8, BLANK 0.07.
Experiment [18] concerns the target Antigen 1. Briefly: ELISA, supernatant UNDILUTED, Plate 1 (Antigen 1), column 8, BLANK 0.07.
For experiment [19], the target named is Antigen 1. Briefly: ELISA, supernatant 1 TO 4096, Plate 1 (Antigen 1), column 8, BLANK 0.07.
Experiment [20] concerns the target Antigen 2. Nature of the experiment: ELISA, supernatant 1 TO 1024, Plate 2 (Antigen 2), column 8, BLANK 0.07.
Experiment [21] concerns the target Antigen 1. Briefly: ELISA, supernatant 1 TO 4, Plate 1 (Antigen 1), column 8, BLANK 0.07.
Experiment [22] addresses Antigen 2. Nature of the experiment: ELISA, supernatant 1 TO 16, Plate 2 (Antigen 2), column 8, BLANK 0.07.
Experiment [23] concerns the target Antigen 2. Nature of the experiment: ELISA, supernatant 1 TO 64, Plate 2 (Antigen 2), column 8, BLANK 0.07.
The target in experiment [24] is Antigen 2. Nature of the experiment: ELISA, supernatant 1 TO 4096, Plate 2 (Antigen 2), column 8, BLANK 0.07.
Experiment [25] deals with Antigen 2. Nature of the experiment: ELISA, supernatant 1 TO 4, Plate 2 (Antigen 2), column 8, BLANK 0.07.
The target in experiment [26] is Antigen 1. Briefly: ELISA, supernatant 1 TO 64, Plate 1 (Antigen 1), column 8, BLANK 0.07.
In experiment [27] the target is Antigen 2. Briefly: ELISA, supernatant UNDILUTED, Plate 2 (Antigen 2), column 8, BLANK 0.07.
For experiment [28], the target named is Antigen 2. Nature of the experiment: ELISA, supernatant 1 TO 256, Plate 2 (Antigen 2), column 8, BLANK 0.07.
The target of experiment [29] is Antigen 2. Nature of the experiment: ELISA, supernatant 1 TO 4096, Plate 2 (Antigen 2), column 10, BLANK 0.07.
Experiment [30] deals with Antigen 1. Briefly: ELISA, supernatant 1 TO 64, Plate 1 (Antigen 1), column 10, BLANK 0.07.
Experiment [31] addresses Antigen 2. Nature of the experiment: ELISA, supernatant UNDILUTED, Plate 2 (Antigen 2), column 10, BLANK 0.07.
Experiment [32] concerns the target Antigen 2. Briefly: ELISA, supernatant 1 TO 256, Plate 2 (Antigen 2), column 10, BLANK 0.07.
The target in experiment [33] is Antigen 2. Briefly: ELISA, supernatant 1 TO 1024, Plate 2 (Antigen 2), column 10, BLANK 0.07.
Experiment [34] has as its target Antigen 1. Briefly: ELISA, supernatant 1 TO 4096, Plate 1 (Antigen 1), column 10, BLANK 0.07.
Experiment [35] deals with Antigen 2. Nature of the experiment: ELISA, supernatant 1 TO 64, Plate 2 (Antigen 2), column 10, BLANK 0.07.
Experiment [36] concerns the target Antigen 1. Briefly: ELISA, supernatant 1 TO 256, Plate 1 (Antigen 1), column 10, BLANK 0.07.
Experiment [37] has as its target Antigen 1. Nature of the experiment: ELISA, supernatant 1 TO 16, Plate 1 (Antigen 1), column 10, BLANK 0.07.
The target in experiment [38] is Antigen 2. Nature of the experiment: ELISA, supernatant 1 TO 16, Plate 2 (Antigen 2), column 10, BLANK 0.07.
Experiment [39] has as its target Antigen 1. Briefly: ELISA, supernatant UNDILUTED, Plate 1 (Antigen 1), column 10, BLANK 0.07.
In experiment [40] the target is Antigen 1. Nature of the experiment: ELISA, supernatant 1 TO 1024, Plate 1 (Antigen 1), column 10, BLANK 0.07.
The target of experiment [41] is Antigen 2. Briefly: ELISA, supernatant 1 TO 4, Plate 2 (Antigen 2), column 10, BLANK 0.07.
Experiment [42] concerns the target Antigen 1. Nature of the experiment: ELISA, supernatant 1 TO 4, Plate 1 (Antigen 1), column 10, BLANK 0.07.

B1: Heavy Chain Construct 3 with Light Chain Construct 2 (VH1-VH2/VL2) (antibody)
heavy: QSVEESGGRLVTPGTPLTLTCTVSGFSLNTNAIRWVRQAPGKGLEWIGAIDASGNTYYASWAKGRFTISKTSTTVDLKITSPTTEDTATYFCNRFNTANIWGPGTLVTVSSGQPKAPSVFPLAPCCGDTPSSTVTLGCLVKGYLPEPVTVTWNSGTLTNGVRTFPSVRQSSGLYSLSSVVSVTSSSQPVTCNVAHPATNTKVDKTVAPSTCSKPMCPPPELLGGRPQPQPQPQPQPQPQPQPQPQPQPQPQPQPQPQSRQSLEESGGRLVSPGTPLTLTCTASGFSLSSNAMGWVRQAPGEGLEYIGIIRPGGSTYYASWAKGRFTISKTSSTTVDLKMTSLTTEDTATYFCARAWDIWGPGTLVTVSLGQPKAPSVFPLAPCCGDTPSSTVTLGCLVKGYLPEPVTVTWNSGTLTNGVRTFPSVRQSSGLYSLSSVVSVTSSSQPVTCNVAHPATNTKVDKTVAPSTCSKPTCPPPELLGGPSVFIFPPKPKDTLMISRTPEVTCVVVDVSQDDPEVQFTWYINNEQVRTARPPLREQQFNSTIRVVSTLPIAHQDWLRGKEFKCKVHNKALPAPIEKTISKARGQPLEPKVYTMGPPREELSSRSVSLACMINGFYPSDISVEWEKNGKAEDNYKTTPAVLDSDGSYFLYSKLSVPTSEWQRGDVFTCSVMHEALHNHYTQKSISRSPGK
light: AFELTQTPSSVEAAVGGTVTIRCQASQSISNQLSWYQQKPGQPPKRLIYRASTLASGVPARFKGSGSGTAFTLTISDLECADGATYYCQSFYYTDVIDYNAFGGGTEVVVTGDPVAPTVLIFPPAADQVATGTVTIVCVANKYFPDVTVTWEVDGTTQTTGIENSKTPQNSADCTYNLSSTLTLTSTQYNSHKEYTCKVTQGTTSVVQSFNRGDC
On to B1, for which the ELISA plate reading was determined as 0.22 with Antigen 1 [1]; 0.09 in the experiment with Antigen 1 [2]; 2.04 with Antigen 2 [3]; 0.08 with Antigen 2 [4]; 1.4 with Antigen 2 [5]; 0.67 with Antigen 2 [6]. In addition, the ELISA plate reading was 0.06 in the experiment with Antigen 1 [7]; 0.11 with Antigen 1 [8]; 0.26 with Antigen 2 [9]; 0.11 with Antigen 2 [10]; 0.06 with Antigen 2 [11]; 0.07 in the experiment with Antigen 1 [12]. In addition, the ELISA plate reading with Antigen 1 [13] and with Antigen 1 [14] was 0.06 throughout.

B2: VH2-VH2 / VL2 (antibody)
heavy chain (VH2-CH1, PQ linker, VH2-CH1, hinge, CH2, CH3): QSLEESGGRLVSPGTPLTLTCTASGFSLSSNAMGWVRQAPGEGLEYIGIIRPGGSTYYASWAKGRFTISKTSSTTVDLKMTSLTTEDTATYFCARAWDIWGPGTLVTVSLGQPKAPSVFPLAPCCGDTPSSTVTLGCLVKGYLPEPVTVTWNSGTLTNGVRTFPSVRQSSGLYSLSSVVSVTSSSQPVTCNVAHPATNTKVDKTVAPSTCSKPTCPPPELLGGRPQPQPQPQPQPQPQPQPQPQPQPQPQPQPQPQSRQSLEESGGRLVSPGTPLTLTCTASGFSLSSNAMGWVRQAPGEGLEYIGIIRPGGSTYYASWAKGRFTISKTSSTTVDLKMTSLTTEDTATYFCARAWDIWGPGTLVTVSLGQPKAPSVFPLAPCCGDTPSSTVTLGCLVKGYLPEPVTVTWNSGTLTNGVRTFPSVRQSSGLYSLSSVVSVTSSSQPVTCNVAHPATNTKVDKTVAPSTCSKPTCPPPELLGGPSVFIFPPKPKDTLMISRTPEVTCVVVDVSQDDPEVQFTWYINNEQVRTARPPLREQQFNSTIRVVSTLPIAHQDWLRGKEFKCKVHNKALPAPIEKTISKARGQPLEPKVYTMGPPREELSSRSVSLACMINGFYPSDISVEWEKNGKAEDNYKTTPAVLDSDGSYFLYSKLSVPTSEWQRGDVFTCSVMHEALHNHYTQKSISRSPGK
light chain: B1 light
On to B2, for which the ELISA plate reading with Antigen 1 [15] is 0.08; with Antigen 1 [16], 0.16; in the experiment with Antigen 1 [17] it was 0.06; in the experiment with Antigen 1 [18], 0.15; with Antigen 1 [19], 0.07; with Antigen 2 [20], 0.68. In addition, the ELISA plate reading was 0.12 with Antigen 1 [21]; 2.14 in the experiment with Antigen 2 [22]; 2.1 in the experiment with Antigen 2 [23]; 0.33 in the experiment with Antigen 2 [24]; 2.12 with Antigen 2 [25]; 0.01 with Antigen 1 [26]. Further, the figures for the ELISA plate reading with Antigen 2 [27] and with Antigen 2 [28] were 2.28 and 1.47, respectively.

B3: Original Heavy Chain (VH2) and Light Chain (VL2) that recognizes Antigen 2 (antibody, V domains shown)
VH: QSLEESGGRLVSPGTPLTLTCTASGFSLSSNAMGWVRQAPGEGLEYIGIIRPGGSTYYASWAKGRFTISKTSSTTVDLKMTSLTTEDTATYFCARAWDIWGPG
VL: AFELTQTPSSVEAAVGGTVTIRCQASQSISNQLSWYQQKPGQPPKRLIYRASTLASGVPARFKGSGSGTAFTLTISDLECADGATYYCQSFYYTDVIDYNAFGGGTEVVVTG
With B3, the ELISA plate reading with Antigen 2 [29] came out at 0.39; in the experiment with Antigen 1 [30], 0.08; in the experiment with Antigen 2 [31], 2.27; with Antigen 2 [32], 1.68; in the experiment with Antigen 2 [33], 0.94; with Antigen 1 [34], 0.08. The ELISA plate reading with Antigen 2 [35] is 2.19; in the experiment with Antigen 1 [36], 0.08; with Antigen 1 [37], 0.08; in the experiment with Antigen 2 [38] it was 2.24; in the experiment with Antigen 1 [39], 0.09; with Antigen 1 [40], 0.1. The ELISA plate reading worked out at 2.38 with Antigen 2 [41] and 0.12 with Antigen 1 [42].
